Source: US20220125947A1
Positions count from the first letter of the chain named. Values belong to the binder of their own block, whether it stands above or below them.

How the values were obtained:
[1] = molecular target: Vg5/Vd2 T cell receptor on SKW3 cells (UniProt A0JD36); assay: flow cytometry, DRC binding at 37°C on SKW3 cells expressing Vg5/Vd2
[2] = molecular target: Vg9/Vd1 T cell receptor on SKW3 cells (UniProt Q99603); assay: flow cytometry, DRC binding at 37°C on SKW3 cells expressing Vg9/Vd1
Chain of Vg9/Vd1 T cell receptor on SKW3 cells (Q99603 21-122): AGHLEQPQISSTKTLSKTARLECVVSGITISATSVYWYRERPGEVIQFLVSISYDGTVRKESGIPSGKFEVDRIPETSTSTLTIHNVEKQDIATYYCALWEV

[3] = molecular target: Vg9/Vd2 T cell receptor on SKW3_4 cells (UniProt Q99603); assay: flow cytometry, DRC binding at 37°C on SKW3_4 cells expressing Vg9/Vd2
Chain of Vg9/Vd2 T cell receptor on SKW3_4 cells (Q99603 21-122, chain 1 of 2): as the sequence (Q99603 21-122) above
Chain of Vg9/Vd2 T cell receptor on SKW3_4 cells (A0JD36 20-115, chain 2 of 2, further chain): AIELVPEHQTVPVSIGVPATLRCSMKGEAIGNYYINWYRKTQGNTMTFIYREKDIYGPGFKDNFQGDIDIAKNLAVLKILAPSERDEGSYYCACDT

[4] = molecular target: Vg5/Vd2 T cell receptor on SKW3 cells (UniProt A0JD36); assay: flow cytometry, DRC binding 37 C, SKW3 cells expressing Vg5/Vd2
[5] = molecular target: Vg9/Vd1 T cell receptor on SKW3 cells (UniProt Q99603); assay: flow cytometry, DRC binding 37 C, SKW3 cells expressing Vg9/Vd1
[6] = molecular target: Vg9/Vd2 T cell receptor on SKW3_4 cells (UniProt Q99603); assay: flow cytometry, DRC binding 37 C, SKW3_4 cells expressing Vg9/Vd2
[7] = molecular target: Vg5/Vd2 T cell receptor on SKW3 cells (UniProt A0JD36); assay: flow cytometry, dose-response binding at 37 C on SKW3 cells expressing Vg5/Vd2
[8] = molecular target: Vg9/Vd1 T cell receptor on SKW3 cells (UniProt Q99603); assay: flow cytometry, dose-response binding at 37 C on SKW3 cells expressing Vg9/Vd1
[9] = molecular target: Vg9/Vd2 T cell receptor on SKW3_4 cells (UniProt Q99603); assay: flow cytometry, dose-response binding at 37 C on SKW3_4 cells expressing Vg9/Vd2
[10] = molecular target: Vg5/Vd2 T cell receptor on SKW3 cells (AG000003285; CLI000001325 (C3820A)) (UniProt A0JD36); assay: flow cytometry, DRC binding at 37°C on SKW3 cells expressing Vg5/Vd2
Chain of Vg5/Vd2 T cell receptor on SKW3 cells (AG000003285; CLI000001325 (C3820A)) (A0JD36 20-115, stated change not applied): as the sequence (A0JD36 20-115, chain 2 of 2, further chain) above

[11] = molecular target: Vg9/Vd1 T cell receptor on SKW3 cells (AG000003287; CLI000001326 (C3821A)) (UniProt Q99603); assay: flow cytometry, DRC binding at 37°C on SKW3 cells expressing Vg9/Vd1
Chain of Vg9/Vd1 T cell receptor on SKW3 cells (AG000003287; CLI000001326 (C3821A)) (Q99603 21-122, stated change not applied): as the sequence (Q99603 21-122) above

[12] = molecular target: Vg9/Vd2 T cell receptor on SKW3_4 cells (AG000003284; CLI000001324 (C3819A)) (UniProt Q99603); assay: flow cytometry, DRC binding at 37°C on SKW3_4 cells expressing Vg9/Vd2
Chain of Vg9/Vd2 T cell receptor on SKW3_4 cells (AG000003284; CLI000001324 (C3819A)) (Q99603 21-122, chain 1 of 2): as the sequence (Q99603 21-122) above
Chain of Vg9/Vd2 T cell receptor on SKW3_4 cells (AG000003284; CLI000001324 (C3819A)) (A0JD36 20-115, chain 2 of 2, further chain): as the sequence (A0JD36 20-115, chain 2 of 2, further chain) above

Chain of Vg5/Vd2 T cell receptor on SKW3 cells (A0JD36 20-115): as the sequence (A0JD36 20-115, chain 2 of 2, further chain) above

B2: VG9B68 (antibody, human IgG1, kappa, V domains shown)
VH: EVQLVESGAEVKKPGSSVKVSCKASGGTFSTYAISWVRQAPGQGLEWMGGIIPIFGTATYAQRFQDRVMITADKSTTTAYMELSSLRSEDTAVFYCARGVGWGSDYYYGLDVWGQGTMVTVSS
VL: EIVMTQSPLSSPVTLGQPASISCRSSQSLVHSDGNTYLSWLQQRPGQSPRLLIYKISNRFSGVPDRFSGSGAGTDFTLRITRVEPEDVGVYYCIQATHHPLTFGGGTRLEIKR
- Max. Activity (fold over background) [4]: 207
- Max. Activity (fold over background) [5]: 2.08
- Max. Activity (fold over background) [6]: 124

B3: VG9B98 (antibody, human IgG1, kappa, V domains shown)
VH: EVQLVQSGGDLVKSGGSLRLSCAASGFTFSSYSMYWVRQAPGKGLEWVSSIGSSSTYIFYADSVKGRFTISRDNAMTSLYLQMNRLGAEDSAVYYCARDGELGPFEYWGQGTLVTVSS
VL: EIVLTQSPGTLSLSPGERATLSCRASQSVSTSYLAWFQQKPGQAPRLLIFGTSSRATGIPDRFSGSGSGTDFTLTISRLEPEDFAVYHCLQYGRSPLTFGGGTKVDIKR
- Max. Activity (fold over background) [7]: 2.47
- Max. Activity (fold over background) [8]: 344
- Max. Activity (fold over background) [9]: 154

B5: VG9B73 (antibody, human IgG1, kappa, V domains shown)
VH: EVQLVQSGGGLVKPGGSLRLSCAASGFTFSNYDMNWVRQAPGKGLEWVSSISSSSSYIYYADSVKGRFTISRDNARNSLFLQMSSLRAEDTAVYYCAREIGVTGTTYYQDYGMDVWGQGTTVTVSS
VL: EIVMTQSPGTLSLSPGERATLSCRASQSFSSNYLAWYQQKPGQAPRLLIYGASSRATGIPDRFSGSGSGTDFTLTISRLEPEDFALYYCQQYGSSPPFTFGQGTKVEIKR
- Max. Activity (fold over background) [7]: 1.79
- Max. Activity (fold over background) [8]: 317
- Max. Activity (fold over background) [9]: 118

B6: VG9B86 (antibody, human IgG1, kappa, V domains shown)
VH: QVQLQESGPGLVKPSETLSLTCTVSGDSISSSYWSWIRQPAGKGLECIGRFYSSGSTSYNPSLKSRVTMAIDTSKNQFSLKLTSVTAADTAVYYCARYSGSYWYFDLWGRGTTVTVSS
VL: EIVLTQSPATLSLSPGERATLSCRASQSVSSYLAWYQQRPGQAPRLLIYDTSNRATGIPARFSGSGSGTDFTLTISSLAPEDFAVYYCQQRSDWLLTFGGGTKVEIKR
- Max. Activity (fold over background) [1]: 207
- Max. Activity (fold over background) [2]: 1.16
- Max. Activity (fold over background) [3]: 138

B7: VG9B143 (antibody, human IgG1, lambda, V domains shown)
VH: EVQLVESGGGLVQPGGSLRLSCAASGFTFSTYGMNWVRQAPGKGLEWISYISTSSYTIYYSDSVKGRFTVSRDNAKNSLYLQMNSLRDEDTAVYYCAREGDWWYFDLWGRGTTVTVSS
VL: QSALTQPASVSGSPGQSITISCTGTSSDVGGYNYVSWYQQHPGKAPKLMIYEVSNRPSGVSYRFSGSKSGNTASLTISGLQAEDEADYYCSSYTSSSTLVFGGGTKLTVLG
- Max. Activity (fold over background) [7]: 1.07
- Max. Activity (fold over background) [8]: 241
- Max. Activity (fold over background) [9]: 97.3

B10: VG9B58 (antibody, human IgG1, kappa, V domains shown)
VH: QVQLQESGPGLVKPSETLSLTCTVSGGSIKSSYWTWIRQPPGKGLEWIGYMFYLGSTNYNPSLKSRVTMSIDTSRNQFSLKLSSVTAADTAVYYCSRERPVLDAFDIWGQGTMVTVSS
VL: DIQMTQSPSAMSASVGDRVTITCRASQDITNYLAWFQQKPGKVPKRLIYAASSLQGGVPSRFSGSGSGTEFTLTISSLQPEDFSTYYCLQHDTYPYTFGQGTKVDIKR
- Max. Activity (fold over background) [7]: 1.49
- Max. Activity (fold over background) [8]: 350
- Max. Activity (fold over background) [9]: 160

B11: VG9B88 (antibody, human IgG1, kappa, V domains shown)
VH: EVQLVESGGGLVKPGGSLRLSCAVSGFTFSSYTMNWVRQAPGKGLEWVSSISTSSSYIDYADSVKGRFTISRDNAKKSLYLQMNSLRAEDTAVYYCARDGDMVAPIKGSFDYWGQGTLVTVSS
VL: EIVLTQSPLSLPVTPGEPASISCRSSQSLLNSDDGNTYLDWYLQKPGQSPQLLIYTLSYRASGVPDRFSGSGSGTDFTLKISRVEAEDVGVYYCMQRIEFPITFGQGTRLEIKR
- Max. Activity (fold over background) [7]: 18.8
- Max. Activity (fold over background) [8]: 346
- Max. Activity (fold over background) [9]: 154

B12: VG9B157 (antibody, human IgG1, lambda, V domains shown)
VH: EVQLLESGGGLVKPGASLKLSCAASGFTFSNHGMSWVRQTSDKRLEWVASITRGGDTTYYPDNVKGRFTISRENAKNTLYLQMSSLKSDDTALYYCTRGPLTVGYAMDYWGQGTTVTVSS
VL: SSELTQDPAVSVALGQTVRITCQGDSLRSYYATWYQQKPGQAPILVIYGENNRPSGIPDRFSGSRSGNTASLTITGAQAEDEADYYCNSRDTGDHHLVFGGGTKLTVLG
- Max. Activity (fold over background) [4]: 11.7
- Max. Activity (fold over background) [5]: 0.96
- Max. Activity (fold over background) [6]: 11

The remaining lines, values ahead:

- Max. Activity (fold over background) [1]: 214
- Max. Activity (fold over background) [2]: 7.28
- Max. Activity (fold over background) [3]: 148
B1: VG9B465 (antibody, human IgG1, lambda, V domains shown)
VH: QVQLQQSGPGLVKPSETLSLTCTVSGGSITSYYWNWIRQPAGKGLEWIGRIYTIGNTNYNPSLKSRVTMSIDTSKHQFSLKLSSVTGADTAVYYCAREGYYESDGSFFPGAFNIWGQGTMVTVSS
VL: SSELTQPASVSGSPGQSITISCTGTSNDVGSYNLVSWYQQHPGKAPKLMIYAGSKRPSGISNRFSGSKSGNTASLTISGLQAEDEADYYCCSYAGTTNVVFGGGTKVTVLG

- Max. Activity (fold over background) [7]: 1.49
- Max. Activity (fold over background) [8]: 325
- Max. Activity (fold over background) [9]: 143
B4: VG9B430 (antibody, human IgG1, kappa, V domains shown)
VH: EVQLLESGGGLVKPGGSLRLSCSASGFTFSSYDMNWVRQAPGKGLEWVSSISSSSSYIYYADSVKGRFTISRDNAKNSLYLQMNSLRAEDTAVYHCARDVGVTTDYYYYGMDVWGQGTMVTVSS
VL: B5 VL with M4L, E17D, F29V, S30A, N32S, A44S, L86V, F98Y, V106L

- Max. Activity (fold over background) [1]: 148
- Max. Activity (fold over background) [2]: 6.29
- Max. Activity (fold over background) [3]: 151
B8: VG9B194 (antibody, human IgG1, lambda, V domains shown)
VH: EVQLLESGAEVKKPGASVKVSCKASGYTFTGDYMHWVRQAPGQGLEWMGWINPNSGYTNNAEKFQGRVTMTRDTSISTAYMELSRLSSDDTAVYYCTRELDALDVWGQGTMVTVSS
VL: QSVLTQPPSASGSPGQSVTISCTGTSSDVGGYNYVSWYQQHPGKAPKLMIYEVSKRPSGVPDRFSGSKSGNTASLTVSGLQAEDEADYYCNSYAGSNNFEVFGGGTKVTVLG

- Max. Activity (fold over background) [7]: 2.22
- Max. Activity (fold over background) [8]: 328
- Max. Activity (fold over background) [9]: 171
B9: VG9B472 (antibody, human IgG1, kappa, V domains shown)
VH: QVQLVESGGGLVKPGGSLRLSCAASGFTFSHYDMNWVRQAPGKGLEWVSSISSSSSYIFYADSVKGRFTISRDNAKNSLLLQMNSLRAEDTAVYHCARDRGVGDTSDYYSFGLDVWGQGTTVTVSS
VL: EIVLTQSPSSLSASVGDRVTITCRASQGIATYLAWYQQKPGKVPNLLIYAASTLQSGVPSRFSGSGSGTDFTLTISSLQPEDVATYYCQKYNSAPPWTFGQGTKVEIKR

- Max. Activity (fold over background) [7]: 18.7
- Max. Activity (fold over background) [8]: 290
- Max. Activity (fold over background) [9]: 121
B13: VG9B384 (antibody, human IgG1, lambda, V domains shown)
VH: QVQLQESGPALVKPTQTLTLTCTFSGFSLSSSGMCVSWIRQPPGKALEWLTLIDWFDDKYYSTSLKTRLTISKDTSKNQVVLTMTNMDPVDTATYYCARIRGTGAYYYGLDVWGQGTMVTVSS
VL: SYELMQPPSVSVSPGQTASITCSGNELGDKYASWYQQQPGQSPVLVIYQDNKRPSGIPERFSGSNSGNTATLTISGTQAMDEADYYCQAWDSSKVVFGGGTKLTVLG

- Max. Activity (fold over background) [10]: 10.3
- Max. Activity (fold over background) [11]: 300
- Max. Activity (fold over background) [12]: 119
B14: VG9B195 (antibody, human IgG1, lambda, V domains shown)
VH: EVQLVESGGGLVKPGGSLRLSCAASGFTFSPYTMNWVRQAPGKGLEWVSSISSSSSYMYYADSVKGRFTISRDNAKNSLYLQMNSLRAEDTAVYYCARDGDLVGPTYYFDYWGQGTLVTVSS
VL: B13 VL with N25D, E26K, S33C, Q38K, D50H, N68K, S93T, K94T
